The record followed here is publication PMC13016609, “UV irradiation alters TFAM binding specificity and compaction of DNA”.

What all share (settings): protein: recombinant; label: 5' 6-FAM on strand 1; blunt
The target in series [1] is T1, TFAM (no MTS) (Homo sapiens, UniProt Q00059 43-246).
T1 sequence: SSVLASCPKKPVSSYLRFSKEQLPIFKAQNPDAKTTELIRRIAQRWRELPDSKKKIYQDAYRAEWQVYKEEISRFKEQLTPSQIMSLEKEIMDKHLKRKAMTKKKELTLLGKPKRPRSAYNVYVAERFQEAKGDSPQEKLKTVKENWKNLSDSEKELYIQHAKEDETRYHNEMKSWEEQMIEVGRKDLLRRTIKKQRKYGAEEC
The series can be described thus: fluorescence anisotropy; Hill n 2.07±0.07; FP: 25 mM HEPES, 10 mM Mg(OAc)2, 25 mM NaOAc, 75 mM KOAc, pH 7.5, 1 nM DNA, TFAM 0-15 nM diluted on ice (read temperature not stated); AFM oligos: on ice, 2 min.

Series [2] has as its target T1, TFAM (no MTS). The series can be described thus: fluorescence anisotropy; +UVC; Hill n 2.12±0.28; FP: 25 mM HEPES, 10 mM Mg(OAc)2, 25 mM NaOAc, 75 mM KOAc, pH 7.5, 1 nM DNA, TFAM 0-15 nM diluted on ice (read temperature not stated); AFM oligos: on ice, 2 min.
Series [3] addresses T1, TFAM (no MTS). The experiment in a line: fluorescence anisotropy; Hill n 2.46±0.23; FP: 25 mM HEPES, 10 mM Mg(OAc)2, 25 mM NaOAc, 75 mM KOAc, pH 7.5, 1 nM DNA, TFAM 0-15 nM diluted on ice (read temperature not stated); AFM oligos: on ice, 2 min.
Series [4] has as its target T1, TFAM (no MTS). The experiment in a line: fluorescence anisotropy; +UVC; Hill n 2.33±0.10; FP: 25 mM HEPES, 10 mM Mg(OAc)2, 25 mM NaOAc, 75 mM KOAc, pH 7.5, 1 nM DNA, TFAM 0-15 nM diluted on ice (read temperature not stated); AFM oligos: on ice, 2 min.
The target of series [5] is T1, TFAM (no MTS). The experiment in a line: fluorescence anisotropy; +UVC; Hill n 2.19±0.06; FP: 25 mM HEPES, 10 mM Mg(OAc)2, 25 mM NaOAc, 75 mM KOAc, pH 7.5, 1 nM DNA, TFAM 0-15 nM diluted on ice (read temperature not stated); AFM oligos: on ice, 2 min.

B1: COX1_27 (dsDNA)
DNA 1: AAGACATTGGAACACTATACCTATTATTCGGCG
DNA 2: CGCCGAATAATAGGTATAGTGTTCCAATGTCTT
Take B1: in the series with TFAM (no MTS) [1], the Kd worked out at 6.09 ± 0.43 nM.

B2: COX1_27 +UVC (dsDNA)
DNA 1: B1 DNA 1
DNA 2: B1 DNA 2
modifications: UVC 1500 J/m2 photolesions (positions undefined)
As for B2, the Kd with TFAM (no MTS) [2] worked out at 5.9 ± 0.1 nM.

B3: RNR2_619 (dsDNA)
DNA 1: ATTGATCCAATAACTTGACCAACGGAACAAGTT
DNA 2: AACTTGTTCCGTTGGTCAAGTTATTGGATCAAT
As to B3, the Kd with TFAM (no MTS) [3] turned out to be 4.89 ± 0.33 nM.

B4: RNR2_619 +UVC (dsDNA)
DNA 1: B3 DNA 1
DNA 2: B3 DNA 2
modifications: UVC 1500 J/m2 photolesions (positions undefined)
As to B4, in the series with TFAM (no MTS) [4], the Kd turned out to be 8.13 ± 0.39 nM.

B5: ND3_92 +UVC (dsDNA)
DNA 1: TTAGTAGCTATTACCTTCTTATTATTTGATCTA
DNA 2: TAGATCAAATAATAAGAAGGTAATAGCTACTAA
modifications: UVC 1500 J/m2 photolesions (positions undefined)
Turning to B5, in the series with TFAM (no MTS) [5], the Kd is 5.54 ± 0.14 nM.
